Bridges are numbered along the chain shown (N, C = ends). Where no end group is shown, it is not given here.
T1: Human primary amine oxidase (hAOC3), recombinant (human, UniProt Q16853 1-763, topaquinone (TPQ; 2,4,5-trihydroxyphenylalanine quinone, a post-translationally modified tyrosine); N-glycans at Asn137, Asn232, Asn294, Asn592, Asn618, Asn666)
T1 sequence (looked up): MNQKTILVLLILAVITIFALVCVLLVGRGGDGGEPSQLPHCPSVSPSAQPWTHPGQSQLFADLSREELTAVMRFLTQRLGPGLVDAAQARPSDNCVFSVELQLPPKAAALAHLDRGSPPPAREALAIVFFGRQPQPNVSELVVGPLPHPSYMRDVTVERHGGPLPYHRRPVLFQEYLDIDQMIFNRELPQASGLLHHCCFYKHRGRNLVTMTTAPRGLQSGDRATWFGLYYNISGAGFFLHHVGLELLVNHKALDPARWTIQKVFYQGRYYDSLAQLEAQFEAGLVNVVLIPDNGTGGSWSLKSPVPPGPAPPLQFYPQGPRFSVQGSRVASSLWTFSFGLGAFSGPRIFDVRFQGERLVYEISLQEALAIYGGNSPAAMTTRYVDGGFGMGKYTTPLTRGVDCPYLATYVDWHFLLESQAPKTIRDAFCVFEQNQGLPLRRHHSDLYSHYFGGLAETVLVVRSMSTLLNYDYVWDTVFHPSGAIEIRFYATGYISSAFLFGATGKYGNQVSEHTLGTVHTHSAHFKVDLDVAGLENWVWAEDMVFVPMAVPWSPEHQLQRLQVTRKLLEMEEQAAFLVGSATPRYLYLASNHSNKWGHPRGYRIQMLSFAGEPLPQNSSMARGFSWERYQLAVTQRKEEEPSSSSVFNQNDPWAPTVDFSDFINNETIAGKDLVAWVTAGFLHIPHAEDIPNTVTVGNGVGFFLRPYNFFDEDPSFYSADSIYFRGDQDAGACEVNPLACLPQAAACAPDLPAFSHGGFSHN


molecular target: T1, Human primary amine oxidase (hAOC3), …; assay: cell-based or functional assay

Binder | activity of hAOC3-expressing CHO cells towards [7-14C]benzylamine with 5 µM peptide, percent of the control without peptide [%]
CARLSLSWRGLTLCPSK (disulfide 1-14) [cyclic Siglec-9 peptide (CARLSLSWRGLTLCPSK)] | 127
CAALSLSWRGLTLCPSK (disulfide 1-14) [R3A Siglec-9 peptide (CAALSLSWRGLTLCPSK)] | 139

Second part, the binder after the results:

activity of hAOC3-expressing CHO cells towards [7-14C]benzylamine with 5 µM peptide, percent of the control without peptide [%] | Binder
158 | CAALSLSWAGLTLCPSK (disulfide 1-14) [R3A/R9A Siglec-9 peptide (CAALSLSWAGLTLCPSK)]
126 | CARLSLSWAGLTLCPSK (disulfide 1-14) [R9A Siglec-9 peptide (CARLSLSWAGLTLCPSK)]

Reference: publication PMC5794975, “Mapping the interaction site and effect of the Siglec-9 inflammatory biomarker on human primary amine oxidase” (Scientific Reports, 2018)
